Results published in patent US20200157212A1 (Pfizer, published 2020).

Legend:
[1] = molecular target: T1, Human ROBO2 Ig1-Ig2-His (human, UniProt Q9HCK4 31-220); assay: Octet (BLI)
T1 construct: the His tag is named only in the SPR paragraphs; the Octet and ELISA paragraphs print 'ROBO2 Ig1-Ig2' without a tag; also called ROBO2 Ig1-2; Human ROBO2 Ig 1,2
T1 sequence: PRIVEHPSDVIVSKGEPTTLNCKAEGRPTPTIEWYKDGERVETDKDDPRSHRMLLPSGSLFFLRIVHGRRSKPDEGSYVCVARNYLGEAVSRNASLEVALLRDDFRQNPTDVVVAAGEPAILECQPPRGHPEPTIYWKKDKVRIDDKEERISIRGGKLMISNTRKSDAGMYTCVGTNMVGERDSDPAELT

[2] = molecular target: T1, Human ROBO2 Ig1-Ig2-His; assay: SPR (Biacore T200), Abcs35 immobilized on a CM5 chip, ROBO2 Ig1-Ig2-His as analyte; column head kon(1/Ms)
Description: (§1) […] Association and dissociation were followed over time.
(§2) Based upon several criteria, Abcs25 and Abcs35 were selected for further characterization. Using flow cytometry, improvement in the binding EC₅₀ to human ROBO2 relative to the parental 93H2 was evaluated. Starting at 6.7 nM, 11-point, 3-fold dilution series were made for each antibody and used to stain HEK293 overexpressing human ROBO2 as described above for the ROBO2 fold selectivity (Example 2). […] In addition to measuring improved binding to human ROBO2, it was important to ensure that high affinity binding to both cynomolgus monkey ROBO2 and rat ROBO2 was maintained. Using HEK293 cells overexpressing either cynomolgus monkey ROBO2 or rat ROBO2, the relative dose-dependent binding of 93H2, Abcs25 and Abcs35 was evaluated as described above. High affinity binding to both cynomolgus monkey and rat ROBO2 was maintained in Abcs25 and Abcs35 (Table 4). […] Briefly, Abcs35 was immobilized to 300 resonance units (RU) on a CM5 chip. Association of ROBO2 Ig1-Ig2-His (ROBO2) was measured over 5 minutes and dissociation was followed for a period of 10 minutes.

[3] = molecular target: T1, Human ROBO2 Ig1-Ig2-His; assay: SPR (Biacore T200), Abcs35 immobilized on a CM5 chip, ROBO2 Ig1-Ig2-His as analyte; column head kdis(1/s)
Description: as §1, §2

[4] = molecular target: T2, Rat ROBO2 on cells (rat, UniProt Q7TPD3 22-1469 (mouse entry)); assay: cell-based or functional assay
T2 chain: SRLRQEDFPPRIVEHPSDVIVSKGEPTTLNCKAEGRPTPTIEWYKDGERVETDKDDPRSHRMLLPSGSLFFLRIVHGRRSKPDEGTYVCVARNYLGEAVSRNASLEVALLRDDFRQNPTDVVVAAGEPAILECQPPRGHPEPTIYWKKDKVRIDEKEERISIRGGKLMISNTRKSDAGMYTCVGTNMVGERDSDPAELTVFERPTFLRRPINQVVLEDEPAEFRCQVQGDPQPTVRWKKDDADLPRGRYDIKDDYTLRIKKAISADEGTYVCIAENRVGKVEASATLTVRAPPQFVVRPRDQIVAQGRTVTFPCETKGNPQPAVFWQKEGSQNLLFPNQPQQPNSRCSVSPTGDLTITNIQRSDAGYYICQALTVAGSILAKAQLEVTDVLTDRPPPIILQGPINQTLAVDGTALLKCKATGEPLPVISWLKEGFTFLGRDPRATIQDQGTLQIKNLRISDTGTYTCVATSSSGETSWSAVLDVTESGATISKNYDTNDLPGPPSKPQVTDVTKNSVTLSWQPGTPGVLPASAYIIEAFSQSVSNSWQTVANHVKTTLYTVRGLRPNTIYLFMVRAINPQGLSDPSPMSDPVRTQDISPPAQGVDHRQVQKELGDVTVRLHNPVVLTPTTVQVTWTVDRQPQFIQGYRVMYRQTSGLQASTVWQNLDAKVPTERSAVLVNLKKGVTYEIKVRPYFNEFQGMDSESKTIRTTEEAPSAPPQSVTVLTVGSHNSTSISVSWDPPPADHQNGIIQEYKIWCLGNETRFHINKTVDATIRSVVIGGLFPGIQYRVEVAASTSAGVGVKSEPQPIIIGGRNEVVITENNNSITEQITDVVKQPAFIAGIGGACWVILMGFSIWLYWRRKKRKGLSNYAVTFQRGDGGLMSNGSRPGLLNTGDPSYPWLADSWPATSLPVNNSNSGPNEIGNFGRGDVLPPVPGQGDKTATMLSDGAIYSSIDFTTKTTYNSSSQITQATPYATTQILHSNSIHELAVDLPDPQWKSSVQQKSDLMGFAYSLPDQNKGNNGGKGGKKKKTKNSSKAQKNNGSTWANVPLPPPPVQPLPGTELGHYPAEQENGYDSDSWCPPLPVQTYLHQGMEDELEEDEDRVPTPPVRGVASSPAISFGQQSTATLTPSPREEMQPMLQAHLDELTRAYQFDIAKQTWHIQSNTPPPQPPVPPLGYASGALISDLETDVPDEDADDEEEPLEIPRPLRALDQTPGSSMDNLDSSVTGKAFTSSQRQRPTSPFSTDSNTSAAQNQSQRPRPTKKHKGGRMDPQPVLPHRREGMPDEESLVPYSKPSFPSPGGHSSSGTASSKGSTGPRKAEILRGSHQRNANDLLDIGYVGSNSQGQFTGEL

B1: 93H2 (antibody, human IgG1, kappa, V domains shown)
VH: EVQLVQSGAEVKKPGASVKVSCKASGYTFTGYYMHWVRQAPGQGLEWMGWINPNSGATNFPQKFQGRVTMTRDTSITTAYMDLSRLRSDDTAVYYCARESGDDAFDIWGQGTMVTVSS
VL: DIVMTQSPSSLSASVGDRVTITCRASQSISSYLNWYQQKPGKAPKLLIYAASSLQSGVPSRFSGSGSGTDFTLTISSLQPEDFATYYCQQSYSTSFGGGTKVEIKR
notes: also called parental 93H2; 93H2 mAb
- Kd [1]: 37 nM

B2: Abcs35 (antibody, human IgG1, kappa)
heavy: EVQLVQSGAEVKKPGASVKVSCKASGYTFTGYYMHWVRQAPGQGLEWMGWINPKNGDTEFPQKFQGRVTMTRDTSITTAYMDLSRLRSDDTAVYYCARESGDDAFDIWGQGTMVTVSSASTKGPSVFPLAPSSKSTSGGTAALGCLVKDYFPEPVTVSWNSGALTSGVHTFPAVLQSSGLYSLSSVVTVPSSSLGTQTYICNVNHKPSNTKVDKKVEPKSCDKTHTCPPCPAPEAAGAPSVFLFPPKPKDTLMISRTPEVTCVVVDVSHEDPEVKFNWYVDGVEVHNAKTKPREEQYNSTYRVVSVLTVLHQDWLNGKEYKCKVSNKALPAPIEKTISKAKGQPREPQVYTLPPSREEMTKNQVSLTCLVKGFYPSDIAVEWESNGQPENNYKTTPPVLDSDGSFFLYSKLTVDKSRWQQGNVFSCSVMHEALHNHYTQKSLSLSPGK
light: DIVMTQSPSSLSASVGDRVTITCRASQSISSYLNWYQQKPGKAPKLLIYAASSLQSGVPSRFSGSGSGTDFTLTISSLQPEDFATYYCQQSVGLFFGGGTKVEIKRTVAAPSVFIFPPSDEQLKSGTASVVCLLNNFYPREAKVQWKVDNALQSGNSQESVTEQDSKDSTYSLSSTLTLSKADYEKHKVYACEVTHQGLSSPVTKSFNRGEC
notes: fully human IgG1; VH of Ab96 with VL of Ab123
- kon [2]: 2.96e+07 M⁻¹ s⁻¹
- koff [3]: 0.00793 s⁻¹
- IC50, restoration of neuronal cell migration (SVZa assay) [4]: 0.027 nM
